# Measurements reported in patent CN102875676A (WUXI PROGRAMMED ARTIFICIAL MOLECULAR EVOLUTION CO LTD, dated 2013).
# B1: 3D7 Fab (原型分子3D7) (Fab, V domains shown)
# VH: EVQLVESGGGLVQPGGSLRLSCAASGFNIKDTYIHWVRQAPGKGLEWVAYIAPSYGYTRYADSVKGRFTISADTSKNTAYLQMNSLRAEDTAVYYCSRSSDASYSYSAWGQGTLVTVSS
# VL: DIVMTQSPSSLSASVGDRVTITCRASQFVGFYIHWYQQKPGKAPKLLIYAASERATGVPSRFSGSRSGTDFTLTISSLQPEDFATYYCQQWLNNPFTFGQGTKVEIKR
# notes: Tested as a Fab (phage supernatant in the screen); also called 原型抗体3D7
# B2: 6B2 Fab (候选分子6B2) (Fab, V domains shown)
# VH: EVQLVQSGGGVVQPRRSLRLSCAASGFDIYDDDIHWVRQAPGKGLEWVYIAPSYGYTRYADSVKGRFTVSRDNSKNTLYLQMNSLRAEDTSVYYCARSSDASYSYSAMDYWGQGTLVTVSS
# VL: DIQMTQSPSSVSASIGDRVTITCRASQDASYSSAWYQQRPGKAPELLIYSAASYESGVPSRFSGSGSGTDFTLTISSLQAEDFATYYCQSSASPATFGQGTRLEIKR
# B3: 全长6B2 (F6B2), full-length antibody (antibody, V domains shown)
# VH: B2 VH
# VL: B2 VL
# notes: expressed in DG44 cells; also called 6B2全长抗体分子
# Key:
# [1] = target: T1, 重组人VEGF (recombinant human VEGF, VEGF-A) (human, UniProt P15692-4 27-191, limits assumed); assay: Friguet method (solution equilibrium with human VEGF, ELISA of free antibody on immobilised VEGF), Fab
# T1 sequence (P15692 other isoform, or with tags, fused parts or gaps limits assumed): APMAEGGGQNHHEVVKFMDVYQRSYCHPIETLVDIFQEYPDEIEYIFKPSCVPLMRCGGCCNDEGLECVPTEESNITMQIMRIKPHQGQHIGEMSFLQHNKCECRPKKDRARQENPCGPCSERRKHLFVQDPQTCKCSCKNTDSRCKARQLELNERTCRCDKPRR
# [2] = target: T1, 重组人VEGF (recombinant human VEGF, VEGF-A); assay: Friguet method, full-length antibody
Binder,Kd [1],Kd [2]
B1,1.56 nM,
B2,0.276 nM,
B3,,0.022 nM
